# Results reported in patent publication US6475997B1, “Methods of stimulating phagocytosis” (University of Pennsylvania, priority 1993, dated 2002).
# Experiments:
# [1] = system: J32/FcγRIIA and J32-3.2/FcγRIIA T-cell transfectants; assay: inhibition of sEA phagocytosis in FcγRIIA T-cell transfectants; format: cell-based; details: preincubation of the cells in 10 μg/ml
# Description: The ability of these T-cell transfectants to phagocytose IgG-sensitized cells was assessed by incubation with IgG coated sheep erythrocytes (sEA). In both the wild type J32 and mutant J32-3.2 transfectants, a number of the cells were able to phagocytose the sEA (FIG. 12).
# Considering that 70%-100% of the cells are expressing FcγRIIA in these transfectants, and presumably are mediating phagocytosis through this receptor, the levels of phagocytosis observed are relatively low when compared, for example, to COS-1 fibroblasts transfected with FcγRIIA (Indik et al, J. Clin. Invest. 88:1766 (1991)). […] Also phagocytosis was inhibited when the transfectants were incubated with sEA at 0° C. instead of 37° C.
# [2] = system: murine macrophages (P388D1); assay: phagocytosis by WT FcγRI transfected into murine macrophages; format: cell-based
# Description: Wild type (WT) and a mutant (MT) FcγRI, engineered to omit the cytoplasmic domain (CYT), were transfected into COS cells and murine macrophages (P388D1). The phagocytic potential of the transformed cells was assessed using IgG-coated RBCs (EA) and RBCs conjugated with Fab anti-human FcγR1 mAb (E-mAb). […] However, both WT and MT FcγRI induced phagocytosis in P388D1. Phagocytosis by WT FcγRI was inhibited by the tyrosine kinase inhibitor tyrphostin 23. Furthermore, activation of FcγRI on monocytes with Fab anti-FcγRI induced tyrosine phosphorylation of FcγRII, determined by anti-phosphotyrosine immunoblots. FcγR1 thus mediates a Ca^2+ signal through its cytoplasmic domain but not phagocytosis. FcγRI induced phagocytosis therefore requires elements, present in macrophages but absent in COS cells, that permit transmembrane communication.
# [3] = system: COS-1 cells; assay: phagocytosis of IgG-coated cells (EA) by FcγRIIIA-transfected COS-1 cells, electron microscopy; format: cell-based; details: COS-1 transfectants
# Description: A FcγRIIIA encoding sequence was transfected into COS-1 cells to study its phagocytic function, determined by electron microscopy, in the absence of other Fc receptors. […] To delineate the region of the γ chain important in phagocytosis, two deletion mutants, were constructed, deleting the C-terminal 7 amino acids or deleting the C-terminal 22 amino acids which have a tyrosine containing conserved motif, Y-X2-L-X7-Y-X2-L (SEQ ID NO:10), present in several Ig gene super family receptors. […] The role of the conserved cytoplasmic tyrosines was then examined.
# Further, single chain Fcγ receptor chimeras, consisting of the γ cytoplasmic domain and the a extracellular domain with the transmembrane domain of either FcγRIIIA-γ or FcγRI were able to mediate a phagocytic signal. However, single chain chimeras were not sufficient for full phagocytic activity.
# [4] = system: FcγRII; details: cited from earlier work
# [5] = target: FcγRIIA (UniProt P12318); assay: cell-based or functional assay
# [6] = target: FcγRIIA (UniProt P12318)
# [7] = target: γ chain (γ subunit of FcγRI and FcγRIIIA); assay: cell-based or functional assay
# [8] = system: FcγRI and FcγRII; details: cited from earlier work
# [9] = system: splenic macrophage Fcγ receptors; details: in vivo; cited from earlier work
# [10] = system: IgG sensitized 51Cr-guinea pig RBC (EA); assay: splenic macrophage clearance of IgG sensitized 51Cr-guinea pig RBC (EA), established guinea pig model; format: in vivo
# Description: (§1) Human recombinant macrophage colony stimulating factor (hrM-CSF) was studied in vivo using an established model in the guinea pig (Schreiber et al, J. Clin. Invest. 51:575 (1972)). Adult male guinea pigs were treated for 5 days with hrM-CSF (500 μg/kg) and splenic macrophage FcγR function and protein expression were assessed by i) the splenic macrophage clearance of IgG sensitized ^51Cr-guinea pig RBC (EA), ii) the in vitro binding of EA by isolated splenic macrophage, and iii) FACS analysis using monoclonal antibodies with specificity for the two guinea pig splenic macrophage Fcγ receptors, FcγR1,2 and FcγR2. Treatment with hrM-CSF enchanced the clearance of EA by 72±5%. In addition, a greater proportion of isolated splenic macrophages from hrM-CSF treated animals bound EA in vitro: 80±7% vs 48±4% (sham), p<0.001. In vivo hrM-CSF increased the expression of both splenic macrophages Fcγ receptors: 81±6% and 130±10% for FcγR1,2 and FcγR2, respectively. The lowest effective dose of hrM-CSF was 250 μg/kg, increasing the expression of FcγR1,2 by 26±3% and FcγR2 by 42±4%. […] The effect of hrM-CSF required at least 4 days of treatment.
# [11] = system: splenic macrophage; assay: in vitro binding of EA by isolated splenic macrophages from treated animals; format: in vivo, guinea pig; details: animals treated 500 μg/kg for 5 days; sham 48±4%, p<0.001
# Description: as §1
# [12] = system: FcγR1,2; assay: FACS analysis of splenic macrophage Fcγ receptor expression with monoclonal antibodies; format: in vivo, guinea pig
# Description: as §1
# [13] = system: FcγR2; assay: as above; format: in vivo, guinea pig
# Description: as §1
molecule,measurement,setting,value
C=C1[C@@H](C)[C@H]2[C@H](Cc3ccccc3)NC(=O)[C@]23[C@H](OC(C)=O)/C=C/[C@@](C)(O)C(=O)[C@@H](C)C/C=C/[C@H]3[C@@H]1O [cytochalasin-D],effect on phagocytosis of sEA,[1],abolished phagocytosis
N#CC(C#N)=Cc1ccc(O)c(O)c1 [tyrphostin 23],effect on phagocytosis by WT FcγRI,[2],inhibited
same,effect on FcγRIIIA phagocytosis,[3],reversibly inhibited phagocytosis
"GM-CSF: hematopoietic growth factor, granulocyte-macrophage colony-stimulating factor",effect on monocyte FcγRII expression and function,[4],selectively increase monocyte FcγRII expression and function
IgG on IgG-sensitized sheep red blood cells (EA) (antibody),"% phagocytic cells, J32-3.2/FcγRIIA bulk transfectants, experiment 2",[5],5%
same,"% phagocytic cells, J32-3.2/FcγRIIA bulk transfectants, experiment 3",[5],13%
same,"% phagocytic cells, J32-3.2/FcγRIIA bulk transfectants, experiment 4",[5],17%
same,"% phagocytic cells, J32-3.2/FcγRIIA bulk transfectants, experiment 6",[5],6%
same,"% phagocytic cells, J32/FcγRIIA bulk transfectants, experiment 1",[5],17%
same,"% phagocytic cells, J32/FcγRIIA bulk transfectants, experiment 2",[5],33%
same,"% phagocytic cells, J32/FcγRIIA bulk transfectants, experiment 3",[5],25%
same,"% phagocytic cells, J32/FcγRIIA bulk transfectants, experiment 4",[5],32%
same,"% phagocytic cells, J32/FcγRIIA bulk transfectants, experiment 5",[5],31%
same,"% phagocytic cells, J32/FcγRIIA bulk transfectants, experiment 6",[5],14%
same,"corrected phagocytic index (cP1), J32-3.2/FcγRIIA bulk transfectants, experiment 2 (erythrocytes ingested per 100 cells)",[5],7
same,"corrected phagocytic index (cP1), J32-3.2/FcγRIIA bulk transfectants, experiment 3 (erythrocytes ingested per 100 cells)",[5],21
same,"corrected phagocytic index (cP1), J32-3.2/FcγRIIA bulk transfectants, experiment 4 (erythrocytes ingested per 100 cells)",[5],24
same,"corrected phagocytic index (cP1), J32-3.2/FcγRIIA bulk transfectants, experiment 6 (erythrocytes ingested per 100 cells)",[5],9
same,"percent of cells that phagocytosed EA, FcγRIIA-infected D58 (Src+) cells",[5],70 percent
same,"percent of cells that phagocytosed EA, FcγRIIA-infected SAR6 (Src-) cells",[5],43 percent
same,"phagocytic index (P1), J32-3.2/FcγRIIA bulk transfectants, experiment 2 (erythrocytes ingested per 100 cells)",[5],6
same,"phagocytic index (P1), J32-3.2/FcγRIIA bulk transfectants, experiment 3 (erythrocytes ingested per 100 cells)",[5],18
same,"phagocytic index (P1), J32-3.2/FcγRIIA bulk transfectants, experiment 4 (erythrocytes ingested per 100 cells)",[5],21
same,"phagocytic index (P1), J32-3.2/FcγRIIA bulk transfectants, experiment 6 (erythrocytes ingested per 100 cells)",[5],8
same,"phagocytic index (P1), J32/FcγRIIA bulk transfectants, experiment 1 (erythrocytes ingested per 100 cells)",[5],28
same,"phagocytic index (P1), J32/FcγRIIA bulk transfectants, experiment 2 (erythrocytes ingested per 100 cells)",[5],22
same,"phagocytic index (P1), J32/FcγRIIA bulk transfectants, experiment 3 (erythrocytes ingested per 100 cells)",[5],40
same,"phagocytic index (P1), J32/FcγRIIA bulk transfectants, experiment 4 (erythrocytes ingested per 100 cells)",[5],53
same,"phagocytic index (P1), J32/FcγRIIA bulk transfectants, experiment 5 (erythrocytes ingested per 100 cells)",[5],51
same,"phagocytic index (P1), J32/FcγRIIA bulk transfectants, experiment 6 (erythrocytes ingested per 100 cells)",[5],21
Src,in vitro immune complex kinase assay: phosphorylation of FcγRIIA,[6],FcγRIIA was phosphorylated by Src in this in vitro assay
Syk (enzyme),enhancement of phagocytosis mediated by FcγRI/γ on co-transfection of Syk in COS-1 cells,[7],8 fold
same,enhancement of phagocytosis mediated by FcγRIIIA/γ on co-transfection of Syk in COS-1 cells,[7],6.1 fold
"IFN-γ: the cytokine interferon gamma (protein, UniProt P01579 24-161, looked up) Interferon gamma: QDPYVKEAENLKKYFNAGHSDVADNGTLFLGILKNWKEESDRKIMQSQIVSFYFKLFKNFKDDQSIQKSVETIKEDMNVKFFNSNKKKRDDFEKLTNYSVTDLNVQRKAIHELIQVMAELSPAAKTGKRKRSQMLFRG",effect on levels of FcγRI and FcγRII,[8],modulate the levels of FcγRI and FcγRII
"M-CSF: hematopoietic growth factor, macrophage colony stimulating factor (protein, UniProt P09603 33-554, looked up) Macrophage colony-stimulating …: EEVSEYCSHMIGSGHLQSLQRLIDSQMETSCQITFEFVDQEQLKDPVCYLKKAFLLVQDIMEDTMRFRDNTPNAIAIVQLQELSLRLKSCFTKDYEEHDKACVRTFYETPLQLLEKVKNVFNETKNLLDKDWNIFSKNCNNSFAECSSQDVVTKPDCNCLYPKAIPSSDPASVSPHQPLAPSMAPVAGLTWEDSEGTEGSSLLPGEQPLHTVDPGSAKQRPPRSTCQSFEPPETPVVKDSTIGGSPQPRPSVGAFNPGMEDILDSAMGTNWVPEEASGEASEIPVPQGTELSPSRPGGGSMQTEPARPSNFLSASSPLPASAKGQQPADVTGTALPRVGPVRPTGQDWNHTPQKTDHPSALLRDPPEPGSPRISSLRPQGLSNPSTLSAQPQLSRSHSSGSVLPLGELEGRRSTRDRRSPAEPEGGPASEGAARPLPRFNSVPLTDTGHERQSEGSFSPQLQESVFHLLVPSVILVLLAVGGLLFYRWRRRSHQEPQRADSPLEQPEGSPLTQDDRQVELPV",effect on splenic macrophage Fcγ receptors,[9],increase splenic macrophage Fcγ receptors
"hrM-CSF: Human recombinant macrophage colony stimulating factor (protein, UniProt P09603 33-554, looked up) Macrophage colony-stimulating …: EEVSEYCSHMIGSGHLQSLQRLIDSQMETSCQITFEFVDQEQLKDPVCYLKKAFLLVQDIMEDTMRFRDNTPNAIAIVQLQELSLRLKSCFTKDYEEHDKACVRTFYETPLQLLEKVKNVFNETKNLLDKDWNIFSKNCNNSFAECSSQDVVTKPDCNCLYPKAIPSSDPASVSPHQPLAPSMAPVAGLTWEDSEGTEGSSLLPGEQPLHTVDPGSAKQRPPRSTCQSFEPPETPVVKDSTIGGSPQPRPSVGAFNPGMEDILDSAMGTNWVPEEASGEASEIPVPQGTELSPSRPGGGSMQTEPARPSNFLSASSPLPASAKGQQPADVTGTALPRVGPVRPTGQDWNHTPQKTDHPSALLRDPPEPGSPRISSLRPQGLSNPSTLSAQPQLSRSHSSGSVLPLGELEGRRSTRDRRSPAEPEGGPASEGAARPLPRFNSVPLTDTGHERQSEGSFSPQLQESVFHLLVPSVILVLLAVGGLLFYRWRRRSHQEPQRADSPLEQPEGSPLTQDDRQVELPV",enhancement of the clearance of EA,"[10]; adult male guinea pigs, 500 μg/kg for 5 days",72±5%
same,days of treatment required for the effect,[10]; guinea pig,at least 4 days
same,lowest effective dose,[10]; guinea pig,0.25 mg/kg
same,proportion of isolated splenic macrophages that bound EA in vitro,[11],80±7%
same,"increase in expression of FcγR1,2",[12]; 250 μg/kg,26±3%
same,"increase in expression of splenic macrophage FcγR1,2",[12]; 500 μg/kg for 5 days,81±6%
same,increase in expression of FcγR2,[13]; 250 μg/kg,42±4%
same,increase in expression of splenic macrophage FcγR2,[13]; 500 μg/kg for 5 days,130±10%
